From patent publication US20180273634A1
Values joined by “and” are separate entries in the source; they are usually repeats but may differ in a detail not shown here. Identical values can stand only once.

How the values were obtained:
[1] = target: prostate specific antigen (PSA) (human) (UniProt P07288); assay: SPR, Biacore 3000, PSA amine-coupled on CM4 chip, antibody in flow at 12.5-100 nM
[2] = target: prostate specific antigen (PSA) (human) (UniProt P07288); assay: SPR, Biacore 3000, PSA amine-coupled on CM4 chip, antibody in flow
[3] = target: prostate specific antigen (PSA) (human) (UniProt P07288); assay: SPR, Biacore 3000, PSA amine-coupled on CM4 chip, antibody in flow; dissociation followed 8 h

prostate specific antigen (PSA) (human), sequence (P07288 25-261 limits assumed): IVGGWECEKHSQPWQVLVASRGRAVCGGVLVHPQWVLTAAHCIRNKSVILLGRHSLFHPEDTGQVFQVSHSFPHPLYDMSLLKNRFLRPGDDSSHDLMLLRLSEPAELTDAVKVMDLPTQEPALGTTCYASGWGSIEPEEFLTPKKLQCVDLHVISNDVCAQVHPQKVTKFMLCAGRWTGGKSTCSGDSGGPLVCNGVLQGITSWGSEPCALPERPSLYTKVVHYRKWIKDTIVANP

Substance | kon [1] | Kd [2] | koff [3]
m5A10-DOTA (antibody) | 280000 M⁻¹ s⁻¹ | 20 pM | 6.3e-06 s⁻¹
m5A10-DTPA (antibody) | 270000 M⁻¹ s⁻¹ | 20 pM | 6.3e-06 s⁻¹
murine 5A10 monoclonal antibody (m5A10) | 290000 M⁻¹ s⁻¹ and 250000 M⁻¹ s⁻¹ | 20 pM | 6.3e-06 s⁻¹ and 5.4e-06 s⁻¹
m5A10-DFO (antibody) | 290000 M⁻¹ s⁻¹ | 20 pM | 6.6e-06 s⁻¹
